# Tested on: T1, Nc1ccn([C@@H]2S[C@H](CO)[C@@H](O)[C@@H]2O)c(=O)n1
# T1 construct: endogenous in cells; host or cells: Molt-4 cells (enzyme purified from the cells)
# Assay: purified protein, by the assay type
# Type: biochemical
# Conditions: other: dCyd kinase activity from Molt-4 cells
# Procedure: Each assay was done in duplicate and the kinetic constants were determined from linear double-reciprocal plots of 1/velocity versus 1/concentration of the substrate. The best line was determined by linear regression from at least 5 datum points, and the Km and Vmax were determined from the x and y intercepts.
# Sequence of dCyd Kinase Activity Isolated from Molt-4 Cells (Homo sapiens) (chain, as listed by the source): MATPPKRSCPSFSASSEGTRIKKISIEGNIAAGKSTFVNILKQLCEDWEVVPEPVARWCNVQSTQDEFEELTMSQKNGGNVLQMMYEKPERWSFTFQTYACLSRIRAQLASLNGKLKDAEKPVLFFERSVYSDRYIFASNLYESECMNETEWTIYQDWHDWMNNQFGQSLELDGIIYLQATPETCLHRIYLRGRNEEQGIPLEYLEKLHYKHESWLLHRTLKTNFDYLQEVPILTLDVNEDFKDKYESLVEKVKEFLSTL
substance,measurement,value
dCyd Kinase Activity Isolated from Molt-4 Cells (Homo sapiens),Km,93 µM
